Reference: paper PMC4682845

Molecular target: MERS-CoV main protease (M^pro), wild type, authentic N-terminus (MERS-CoV)
Assay: AUC

Sequence of MERS-CoV main protease (M^pro), wild type, authentic N-terminus (enzyme) (K9N638 3248-3553 limits assumed): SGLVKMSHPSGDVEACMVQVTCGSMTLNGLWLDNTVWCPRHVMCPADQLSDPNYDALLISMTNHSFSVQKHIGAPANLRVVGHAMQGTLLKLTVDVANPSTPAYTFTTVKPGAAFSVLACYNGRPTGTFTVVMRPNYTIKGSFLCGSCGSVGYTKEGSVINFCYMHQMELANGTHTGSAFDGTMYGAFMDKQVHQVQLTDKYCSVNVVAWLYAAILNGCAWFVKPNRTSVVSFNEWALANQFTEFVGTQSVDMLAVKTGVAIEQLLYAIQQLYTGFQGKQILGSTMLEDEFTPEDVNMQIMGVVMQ

“MERS-CoV main protease (M^pro), wild type, authentic N-terminus (enzyme)” showed a percent dimer of 70%.
